Mean nFRET (resting cells) and mean nFRET (2 µM TG, 1 min) data for 1 substance are collected here from PMC11730744.

In assay [1] the target is Orai1β-eGFP (UniProt Q96D31). The assay is described as follows: FRET or BRET; confocal FRET in living WT HEK293 cells co-expressing Orai1 variant-eGFP and STIM-mCherry (CMV promoter); resting (control) cells, medium with 1.8 mM Ca2+; whole cell averages. For orientation: In BRET a luciferase serves as donor, and the signal depends on an acceptor being close.
UniProt Q96D31, sequence (Q96D31 whole entry): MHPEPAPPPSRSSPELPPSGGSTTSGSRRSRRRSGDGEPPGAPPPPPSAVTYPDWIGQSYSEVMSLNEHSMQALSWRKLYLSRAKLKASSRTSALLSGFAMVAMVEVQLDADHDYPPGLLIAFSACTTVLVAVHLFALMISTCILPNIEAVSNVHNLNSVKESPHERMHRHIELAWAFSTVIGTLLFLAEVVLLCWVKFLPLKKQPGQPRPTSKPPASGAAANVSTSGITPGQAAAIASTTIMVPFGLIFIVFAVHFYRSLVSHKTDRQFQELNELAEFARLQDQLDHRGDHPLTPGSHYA
For assay [2], the target named is Orai1β-eGFP (UniProt Q96D31). Nature of the assay: FRET or BRET; confocal FRET in living WT HEK293 cells co-expressing Orai1 variant-eGFP and STIM-mCherry (CMV promoter); stimulated with 2 µM thapsigargin for 1 min, 1.8 mM extracellular Ca2+; whole cell averages.

In the case of “STIM2-mCherry (from UniProt Q9P246 15-746) (natural protein)”, the mean nFRET (resting cells) in assay [1] came to 0.074. In addition, the mean nFRET (2 µM TG, 1 min) in assay [2] came out at 0.114.
